Target: Id(λ2^315)-peptide (amino acids 91 to 101) presented on I-E^d (mouse, UniProt P01904 26-216; P01915 32-225)
Test: cell-based or functional assay

Chain of Id(λ2^315)-peptide (amino acids 91 to 101) presented on I-E^d (P01904 26-216, chain 1 of 2): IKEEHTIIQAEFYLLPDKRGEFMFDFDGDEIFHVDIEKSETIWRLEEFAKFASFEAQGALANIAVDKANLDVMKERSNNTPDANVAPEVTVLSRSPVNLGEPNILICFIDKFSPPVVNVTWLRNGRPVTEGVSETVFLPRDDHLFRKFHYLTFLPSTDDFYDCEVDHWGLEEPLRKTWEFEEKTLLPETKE
Chain of Id(λ2^315)-peptide (amino acids 91 to 101) presented on I-E^d (P01915 32-225, chain 2 of 2): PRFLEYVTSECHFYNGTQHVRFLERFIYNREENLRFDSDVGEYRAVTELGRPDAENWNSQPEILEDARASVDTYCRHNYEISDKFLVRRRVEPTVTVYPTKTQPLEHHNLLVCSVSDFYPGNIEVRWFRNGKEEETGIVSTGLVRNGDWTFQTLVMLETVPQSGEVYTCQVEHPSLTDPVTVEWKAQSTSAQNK

- light emissions (NF-κB-luciferase bioluminescence in vivo, 24 hours after transfer of Id^+ splenocytes into RAG2^-/^- mice carrying Id-specific Luc^+ T cells): 4 fold
B1: Id-specific αβ TCR specific for the Id(λ2^315)-peptide (amino acids 91 to 101) presented on I-E^d (TCR, V domains shown)
V domain 1: QQKVQQSPESLIVPEGAMTSLNCTFSDSASQYFAWYRQQSGKAPKALMSIFSNGEKEEGRFTIHLNKASLHFSLHIRDSQPSDSALYLCAVRGPNTGNYKYVFGAGTRLKVIA
V domain 2: EAAVTQSPRNKVAVTGGKVTLSCNQTNNHNNMYWYRQDTGHGLRLIHYSYGAGSTEKGDIPDGYKASRPSQENFSLILELATPSQTSVYFCASGDAGQGHSDYTFGSGTRLLVI

— patent US20110126299A1 (published 2011)
